# From patent US20120121597A1 (ROCKEFELLER UNIVERSITY, published 2012)
# B1: iMab mutant E95A (CDR-H3 ARAKDNYATGAWFA) (antibody, V domains shown)
# VH: QVQLQQSGPEVVKPGASVKMSCKASGYTFTSYVIHWVRQKPGQGLDWIGYINPYNDGTDYDEKFKGKATLTSDTSTSTAYMELSSLRSEDTAVYYCARAKDNYATGAWFAYWGQGTLVTVSS
# VL: DIVMTQSPDSLAVSLGERVTMNCKSSQSLLYSTNQKNYLAWYQQKPGQSPKLLIYWASTRESGVPDRFSGSGSGTDFTLTISSVQAEDVAVYYCQQYYSYRTFGGGTKLEIK
# B2: m36 (other)
# VH: QVQLVQSGGGLVQPGGSLRLSCAASAFDFSDYEMSWVRQAPGKGLEWIGEINDSGNTIYNPSLKSRVTISRDNSKNTLYLQMNTLRAEDTAIYYCAIYGGNSGGEYWGQGTLVTVSS
# notes: also called m36 polypeptide
# B3: iMabm36 fusion antibody (bispecific antibody, human IgG1, kappa)
# heavy: QVQLQQSGPEVVKPGASVKMSCKASGYTFTSYVIHWVRQKPGQGLDWIGYINPYNDGTDYDEKFKGKATLTSDTSTSTAYMELSSLRSEDTAVYYCAREKDNYATGAWFAYWGQGTLVTVSSASTKGPSVFPLAPSSKSTSGGTAALGCLVKDYFPEPVTVSWNSGALTSGVHTFPAVLQSSGLYSLSSVVTVPSSSLGTQTYICNVNHKPSNTKVDKKVEPKSCDKTHTCPPCPAPEFEGGPSVFLFPPKPKDTLMISRTPEVTCVVVDVSHEDPEVKFNWYVDGVEVHNAKTKPREEQYNSTYRVVSVLTVLHQDWLNGKEYKCKVSNKALPASIEKTISKAKGQPREPQVYTLPPSRDELTKNQVSLTCLVKGFYPSDIAVEWESNGQPENNYKTTPPVLDSDGSFFLYSKLTVDKSRWQQGNVFSCSVLHEALHSHYTQKSLSLSPGKLEGGGGSGGGGSGGGGSGQVQLVQSGGGLVQPGGSLRLSCAASAFDFSDYEMSWVRQAPGKGLEWIGEINDSGNTIYNPSLKSRVTISRDNSKNTLYLQMNTLRAEDTAIYYCAIYGGNSGGEYWGQGTLVTVSS
# light: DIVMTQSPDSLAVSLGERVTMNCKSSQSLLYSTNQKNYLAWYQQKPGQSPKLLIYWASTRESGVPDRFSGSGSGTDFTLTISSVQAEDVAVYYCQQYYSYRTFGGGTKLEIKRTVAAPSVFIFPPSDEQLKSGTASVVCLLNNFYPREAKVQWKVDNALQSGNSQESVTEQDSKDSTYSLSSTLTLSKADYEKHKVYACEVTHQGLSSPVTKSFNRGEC
# Key:
# [1] = molecular target: T1, human soluble CD4 (sCD4) (human, UniProt P01730 26-396); assay: SPR, Biacore-3000
# T1 construct: also called human CD4
# [2] = molecular target: T1, human soluble CD4 (sCD4); assay: competition ELISA on plate-coated sCD4; competitor: fixed concentration of HRP-labeled iMab
# [3] = molecular target: CD4 receptor on the target cells of the virus neutralization assay (human, UniProt P01730 26-458); assay: cell-based or functional assay
binder,measurement,setting,value
B1,Kd,[1],7.7 nM
same,koff,[1],0.0048 s⁻¹
same,kon,[1],620000 M⁻¹ s⁻¹
B2,binding result,[2],no binding
B3,"IC50 (read off the curve), virus G23 [Virus (G23]",[3],~0.2 nM
